Measured values taken from PMC10484670.

T1: eIF4E (wheat, UniProt P29557 1-215)
T1 sequence: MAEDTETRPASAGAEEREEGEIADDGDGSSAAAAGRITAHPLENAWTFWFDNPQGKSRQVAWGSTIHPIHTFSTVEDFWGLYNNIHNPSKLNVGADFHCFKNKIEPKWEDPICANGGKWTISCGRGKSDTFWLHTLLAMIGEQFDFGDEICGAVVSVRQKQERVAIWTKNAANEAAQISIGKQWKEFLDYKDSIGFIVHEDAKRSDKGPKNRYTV

B1: PEMV2 A23G (structured_RNA)
RNA: GGUAGAACACGUGGGAUAGGGGGUGACCUUGUCGACCGGUUAUCGGUCCCCUGCUCCUUCGAGCUGGCAAGGCGCUCACAGGUUCUAC
B2: PEMV2 G21A (structured_RNA)
RNA: GGUAGAACACGUGGGAUAGGAGAUGACCUUGUCGACCGGUUAUCGGUCCCCUGCUCCUUCGAGCUGGCAAGGCGCUCACAGGUUCUAC
B3: PEMV2 C50U (structured_RNA)
RNA: GGUAGAACACGUGGGAUAGGGGAUGACCUUGUCGACCGGUUAUCGGUCCUCUGCUCCUUCGAGCUGGCAAGGCGCUCACAGGUUCUAC
B4: PEMV2 G21C (structured_RNA)
RNA: GGUAGAACACGUGGGAUAGGCGAUGACCUUGUCGACCGGUUAUCGGUCCCCUGCUCCUUCGAGCUGGCAAGGCGCUCACAGGUUCUAC
B5: PEMV2 C49U:G19A (structured_RNA)
RNA: GGUAGAACACGUGGGAUAAGGGAUGACCUUGUCGACCGGUUAUCGGUCUCCUGCUCCUUCGAGCUGGCAAGGCGCUCACAGGUUCUAC
B6: PEMV2 U24C (structured_RNA)
RNA: GGUAGAACACGUGGGAUAGGGGACGACCUUGUCGACCGGUUAUCGGUCCCCUGCUCCUUCGAGCUGGCAAGGCGCUCACAGGUUCUAC
B7: PEMV2 U52C (structured_RNA)
RNA: GGUAGAACACGUGGGAUAGGGGAUGACCUUGUCGACCGGUUAUCGGUCCCCCGCUCCUUCGAGCUGGCAAGGCGCUCACAGGUUCUAC
B8: PEMV2 C50U:G20A (structured_RNA)
RNA: GGUAGAACACGUGGGAUAGAGGAUGACCUUGUCGACCGGUUAUCGGUCCUCUGCUCCUUCGAGCUGGCAAGGCGCUCACAGGUUCUAC
B9: PEMV2 U17C:A18U (structured_RNA)
RNA: GGUAGAACACGUGGGACUGGGGAUGACCUUGUCGACCGGUUAUCGGUCCCCUGCUCCUUCGAGCUGGCAAGGCGCUCACAGGUUCUAC
B10: PEMV2 U52C:A26G (structured_RNA)
RNA: GGUAGAACACGUGGGAUAGGGGAUGGCCUUGUCGACCGGUUAUCGGUCCCCCGCUCCUUCGAGCUGGCAAGGCGCUCACAGGUUCUAC
B11: PEMV2 C49U (structured_RNA)
RNA: GGUAGAACACGUGGGAUAGGGGAUGACCUUGUCGACCGGUUAUCGGUCUCCUGCUCCUUCGAGCUGGCAAGGCGCUCACAGGUUCUAC
B12: PEMV2 U65C (structured_RNA)
RNA: GGUAGAACACGUGGGAUAGGGGAUGACCUUGUCGACCGGUUAUCGGUCCCCUGCUCCUUCGAGCCGGCAAGGCGCUCACAGGUUCUAC
B13: PEMV2 BL3-6 (crystallization, L1 mutant) (structured_RNA)
RNA: GGUAGAACACGUGGGAUAGGGGAUGACCUUGUCGACCGAAACACGGUCCCCUGCUCCUUCGAGCUGGCAAGGCGCUCACAGGUUCUACC

The binders below were run against T1, eIF4E (assay: EMSA).

| Binder | binding result |
| --- | --- |
| B1 | no binding |
| B2 | no binding |
| B3 | no binding |
| B4 | no binding |
| B5 | no binding |
| B6 | no binding |
| B7 | no binding |
| B8 | no binding |
| B9 | binds |
| B10 | no binding |
| B11 | binds |
| B12 | no binding |

Target: T1, eIF4E
Experiment: EMSA
Remark: another data set of the same source

| Binder | binding result |
| --- | --- |
| B13 | binds |
